Experiment [1] concerns the target T1, Human TROP2 Protein, His Tag (human, UniProt P09758 27-274).
T1 construct: Bought protein; also called TACSTD2; not shown: His tag
T1 sequence (looked up): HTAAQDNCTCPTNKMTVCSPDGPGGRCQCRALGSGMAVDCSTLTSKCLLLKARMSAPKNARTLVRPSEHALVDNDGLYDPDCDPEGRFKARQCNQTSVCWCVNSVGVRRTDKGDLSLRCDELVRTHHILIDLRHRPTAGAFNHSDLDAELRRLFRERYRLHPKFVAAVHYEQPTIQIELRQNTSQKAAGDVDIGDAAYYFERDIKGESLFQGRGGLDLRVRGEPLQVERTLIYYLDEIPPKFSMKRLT
As to the kind of experiment: BLI (Octet) [2/2]. The method, then:
(§1) After allowing for four days of protein expression, cell culture supernatants were collected, quantified by SDS-PAGE analysis (DNS), and the pH dependence of the variant was evaluated using biolayer interferometry (BLI) on an Octet RED 96e instrument. Briefly, cell culture supernatants were diluted based on qualitative expression level of the variant determined by visual examination of SDS-PAGE gels, 5 μL of cell culture supernatant was diluted into 195 μL of 1×PBST, pH 7.4 for high expressors, 25 μL of cell culture supernatant was diluted into 175 μL of 1×PBST, pH 7.4 for medium expressors and 100 μL of cell culture supernatant was diluted into 100 μL of 1×PBST, pH 7.4 for low expressors for loading onto the sensor tips. The resulting diluted supernatants were then captured on an anti-human Fc sensor (Forte Bio). A baseline was established using 1×PBST (50 mM Potassium Phosphate Buffer+150 mM NaCl+0.05% Tween 20) pH 7.4, and the sensor was associated with 50 nM of TROP2 (Human TROP2 Protein, His Tag, Acro Biosystems) in 1×PBST pH 7.4 for 120 sec to generate an association curve. In the dissociation phase, the antibody-antigen complex on the sensor was exposed to 1×PBST pH 7.4 or pH 5.4, for 300 sec. Association and dissociation phase curves were examined for the starting ABPC antibody (with no substitutions) and each corresponding antibody variant at pH 5.4 and pH 7.4 to inform on two criteria: a) enhanced dissociation (i.e., higher koff values) at pH 5.4 due to histidine or alanine substitution compared to the starting ABPC, (with no substitutions), and b) reduced dissociation at pH 7.4 (i.e., lower koff values) compared to pH 5.4 in the antibody variant itself and with the starting ABPC (with no substitutions). […] It was also noted that while some mutations obliterated TROP2 binding, others were tolerated with little or n change in TROP2 binding kinetics.
In general terms: In BLI a coated tip is dipped into the sample, and binding shifts an interference pattern.

The target in experiment [2] is T2, Human TROP2 Protein, His Tag (Acro Biosystems) (human, UniProt P09758 27-274).
T2 construct: Bought antigen used at 50 nM in the Octet screen; also called TACSTD2; not shown: His tag
T2 sequence (looked up): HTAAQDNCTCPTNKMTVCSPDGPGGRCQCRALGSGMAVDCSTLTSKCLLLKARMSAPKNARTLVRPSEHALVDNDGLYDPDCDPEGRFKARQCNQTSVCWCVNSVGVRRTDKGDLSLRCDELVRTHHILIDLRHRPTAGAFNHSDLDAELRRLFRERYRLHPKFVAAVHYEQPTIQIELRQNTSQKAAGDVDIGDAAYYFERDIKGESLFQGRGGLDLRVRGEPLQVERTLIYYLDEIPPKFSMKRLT
As to the kind of experiment: BLI (Octet) [2/2]. As to the method: as §1

B1: MYT11697 (antibody, V domains shown)
VH: QVQLVQSGAEVKKPGASVKVSCKASGYTFTTAGMQWVRQAPGQGLEWMGWINTHSGVPKYAEDFKGRVTISADTSTSTAYLQLSSLKSEDTAVYYCARSGFGSSYWYFDVWGQGTLVTVSS
VL: DIQMTQSPSSLSASVGDRVTITCKASQDVSTAVAWYQQKPGKAPKLLIYSASYRYTGVPSRFSGSGSGTDFTLTISSLQPEDFAVYYCQQAYITPLTFGQGTKLEIK
notes: IgG from supernatant; Ala at LCV position 91 (starting residue His); also called datopotamab variant L3 03
Take B1: the binding result in experiment [1] was “binds”.

B2: MYT11702 (antibody, V domains shown)
VH: QVQLVQSGAEVKKPGASVKVSCKASGYTFTTAGMQWVRQAPGQGLEWMGWINTHSGVPKYAEDFKGRVTISADTSTSTAYLQLSSLKSEDTAVYYCARSGFGSSYWYFDVWGQGTLVTVSS
VL: DIQMTQSPSSLSASVGDRVTITCKASQDVSTAVAWYQQKPGKAPKLLIYSASYRYTGVPSRFSGSGSGTDFTLTISSLQPEDFAVYYCQQHYITPHTFGQGTKLEIK
notes: IgG from supernatant; His at LCV position 96; also called datopotamab variant L3 08
For the molecule B2, the binding result in experiment [1] is “no binding (tested: 50 nM)”.

B3: MYT11700 (antibody, V domains shown)
VH: QVQLVQSGAEVKKPGASVKVSCKASGYTFTTAGMQWVRQAPGQGLEWMGWINTHSGVPKYAEDFKGRVTISADTSTSTAYLQLSSLKSEDTAVYYCARSGFGSSYWYFDVWGQGTLVTVSS
VL: DIQMTQSPSSLSASVGDRVTITCKASQDVSTAVAWYQQKPGKAPKLLIYSASYRYTGVPSRFSGSGSGTDFTLTISSLQPEDFAVYYCQQHYIHPLTFGQGTKLEIK
notes: IgG from supernatant; His at LCV position 94; also called datopotamab variant L3 06
Take B3: the binding result in experiment [1] was “binds”.

B4: MYT11703 (antibody, V domains shown)
VH: QVQLVQSGAEVKKPGASVKVSCKASGYTFTTAGMQWVRQAPGQGLEWMGWINTHSGVPKYAEDFKGRVTISADTSTSTAYLQLSSLKSEDTAVYYCARSGFGSSYWYFDVWGQGTLVTVSS
VL: DIQMTQSPSSLSASVGDRVTITCKASQDVSTAVAWYQQKPGKAPKLLIYSASYRYTGVPSRFSGSGSGTDFTLTISSLQPEDFAVYYCQQHYITPLHFGQGTKLEIK
notes: IgG from supernatant; His at LCV position 97; also called datopotamab variant L3 09
As for B4, the binding result in experiment [1] was “no binding (tested: 50 nM)”.

B5: MYT11698 (antibody, V domains shown)
VH: QVQLVQSGAEVKKPGASVKVSCKASGYTFTTAGMQWVRQAPGQGLEWMGWINTHSGVPKYAEDFKGRVTISADTSTSTAYLQLSSLKSEDTAVYYCARSGFGSSYWYFDVWGQGTLVTVSS
VL: DIQMTQSPSSLSASVGDRVTITCKASQDVSTAVAWYQQKPGKAPKLLIYSASYRYTGVPSRFSGSGSGTDFTLTISSLQPEDFAVYYCQQHHITPLTFGQGTKLEIK
notes: IgG from supernatant; His at LCV position 92; also called datopotamab variant L3 04
With B5, the binding result in experiment [1] is given as “no binding (tested: 50 nM)”.

B6: MYT11701 (antibody, V domains shown)
VH: QVQLVQSGAEVKKPGASVKVSCKASGYTFTTAGMQWVRQAPGQGLEWMGWINTHSGVPKYAEDFKGRVTISADTSTSTAYLQLSSLKSEDTAVYYCARSGFGSSYWYFDVWGQGTLVTVSS
VL: DIQMTQSPSSLSASVGDRVTITCKASQDVSTAVAWYQQKPGKAPKLLIYSASYRYTGVPSRFSGSGSGTDFTLTISSLQPEDFAVYYCQQHYITHLTFGQGTKLEIK
notes: IgG from supernatant; His at LCV position 95; also called datopotamab variant L3 07
On to B6, for which the binding result in experiment [1] was “binds”.

B7: MYT11756 (antibody, V domains shown)
VH: QVQLQESGPGLVKPSETLSLTCTVSGGSISSYGVHWIRQPPGKGLEWIGVIWTSGVTDYNSALMGRVTISVDTSKNQFSLKLSSVTAADTAVYYCARDGDYDRYTMDYWGQGTLVTVSS
VL: DIVMTQSPDSLAVSLGERATINCRASKSVSTSGYSHMHWYQQKPGQPPKLLIYLASNLESGVPDRFSGSGSGTDFTLTISSLQAEDVAVYYCQHSRELPYTFGQGTKLEIK
notes: hu7E6SVG variant, His at LCV position 36 (L1 13); screened as IgG in Expi293 supernatant
As for B7, the binding result in experiment [2] is on record as “binds”.

B8: MYT11758 (antibody, V domains shown)
VH: QVQLQESGPGLVKPSETLSLTCTVSGGSISSYGVHWIRQPPGKGLEWIGVIWTSGVTDYNSALMGRVTISVDTSKNQFSLKLSSVTAADTAVYYCARDGDYDRYTMDYWGQGTLVTVSS
VL: DIVMTQSPDSLAVSLGERATINCRASKSVSTSGYSYMAWYQQKPGQPPKLLIYLASNLESGVPDRFSGSGSGTDFTLTISSLQAEDVAVYYCQHSRELPYTFGQGTKLEIK
notes: hu7E6SVG variant, Ala in place of His at LCV position 38 (L1 15); screened as IgG in Expi293 supernatant
Take B8: in experiment [2], the binding result was “binds”.

The values are drawn from patent US20260274985A1 (MYTHIC THERAPEUTICS, published 2026).
